# Patent publication US20240425571A1 (OHIO STATE INNOVATION FOUNDATION, published 2024)
# T1: human GARP (glycoprotein A repetitions predominant, LRRC32) on the cell surface (human, UniProt Q14392 20-662)
# T1 construct: whole, on cells; also called hGARP; free GARP
# T1 sequence (looked up): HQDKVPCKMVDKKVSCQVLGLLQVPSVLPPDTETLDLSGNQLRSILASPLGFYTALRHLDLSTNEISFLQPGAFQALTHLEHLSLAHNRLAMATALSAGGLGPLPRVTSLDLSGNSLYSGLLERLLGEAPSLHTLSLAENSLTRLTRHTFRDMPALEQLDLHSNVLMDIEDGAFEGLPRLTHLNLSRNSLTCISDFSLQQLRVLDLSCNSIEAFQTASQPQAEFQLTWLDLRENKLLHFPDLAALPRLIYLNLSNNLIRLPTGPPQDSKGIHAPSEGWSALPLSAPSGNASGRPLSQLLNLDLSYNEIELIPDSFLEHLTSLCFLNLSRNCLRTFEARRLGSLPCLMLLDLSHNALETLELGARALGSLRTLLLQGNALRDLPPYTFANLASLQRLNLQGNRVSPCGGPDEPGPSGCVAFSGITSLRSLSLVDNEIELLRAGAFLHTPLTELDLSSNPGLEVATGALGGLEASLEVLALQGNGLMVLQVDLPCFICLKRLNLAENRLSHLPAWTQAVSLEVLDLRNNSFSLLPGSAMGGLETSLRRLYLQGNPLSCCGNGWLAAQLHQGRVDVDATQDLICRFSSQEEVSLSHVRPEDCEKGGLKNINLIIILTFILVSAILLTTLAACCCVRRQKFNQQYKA
# Experiments:
# [1] = molecular target: T1, human GARP (glycoprotein A repetitions …); experiment: FACS, Ag(+) cells, culture supernatant, 0.2 ug/ml
# [2] = molecular target: T1, human GARP (glycoprotein A repetitions …); experiment: FACS, Ag(+) cells, 0 ug/ml antibody (blank)
# [3] = molecular target: T1, human GARP (glycoprotein A repetitions …); experiment: FACS, Ag(+) cells, supernatant heated 70 C 5 min, 0.2 ug/ml
# [4] = molecular target: T1, human GARP (glycoprotein A repetitions …); experiment: FACS, Ag(+) cells, culture supernatant, 1 ug/ml
# [5] = molecular target: T1, human GARP (glycoprotein A repetitions …); experiment: FACS, Ag(+) cells, supernatant heated 70 C 5 min, 1 ug/ml
# [6] = molecular target: T1, human GARP (glycoprotein A repetitions …); experiment: FACS, Ag(+) cells, culture supernatant, 5 ug/ml
# [7] = molecular target: T1, human GARP (glycoprotein A repetitions …); experiment: FACS, Ag(+) cells, supernatant heated 70 C 5 min, 5 ug/ml
# [8] = molecular target: T1, human GARP (glycoprotein A repetitions …); experiment: FACS, Ag(+) cells, heated-sample series, 0 ug/ml antibody (blank)
# [9] = molecular target: T1, human GARP (glycoprotein A repetitions …); experiment: flow cytometry on human Tregs (drawn table)
MFI [1] [MFI],MFI [2] [MFI],MFI [3] [MFI],MFI [4] [MFI],MFI [5] [MFI],MFI [6] [MFI],MFI [7] [MFI],MFI [8] [MFI],binding result [9],Binder
22.4,9.91,21.7,24.9,25,26.3,25.1,9.91,–,"huPIIO-1VH4VL2 (antibody, V domains shown, Humanized IgG from Expi293, tested as culture supernatant; also called H4L2; HuPIIO-1VH4/L2) VH: DVQLQESGPGLVKPSQTLSLTCTVSGYSITSDYAWNWIRQFPGNKLEWMGYISYSGSTSYTPSLKSRITISRDTSKNHFFLQLSSVTAEDTATYYCAKSGGDYYGSSSYWYFDVWGQGTTVTVSS VL: DIVLTQSPSSLAVSLGERVTMNCKSSQSLLNSRSQKNYLAWYQQKPGQPPKLLIYGASTRGSGVPDRFSGSGSGTDFTLTISSVQAEDVAVYYCQNDHSYPFTFGQGTKLEIKR"
25,9.91,24.2,26.3,25.8,26.7,27,9.91,–,"huPIIO-1VH4VL3 (antibody, V domains shown, Humanized IgG from Expi293, tested as culture supernatant; also called H4L3; HuPIIO-1VH4/L3) VH: DVQLQESGPGLVKPSQTLSLTCTVSGYSITSDYAWNWIRQFPGNKLEWMGYISYSGSTSYTPSLKSRITISRDTSKNHFFLQLSSVTAEDTATYYCAKSGGDYYGSSSYWYFDVWGQGTTVTVSS VL: DIVLTQSPSSLAVSAGERVTMSCKSSQSLLNSRSQKNYLAWYQQKPGQPPKLLIYGASTRGSGVPDRFSGSGSGTDFTLTISSVQAEDVAVYYCQNDHSYPFTFGSGTKLEIKR"
–,–,–,–,–,–,–,–,binds,"5C5 (antibody, V domains shown, anti-human GARP clone; printed 5C5 on the sheets, 5c5 / m5c5 / 5C5 in the text; also called m5c5) VH: EVKLVESGGGSVKPGGSLKLSCAASGFTFSNYVMSWVRQTPEKRLEWVATISSGGSYTYYPDSVKGRLTISRDNAKNTLYLQMSSLRSEDTAMYYCARGYDNGDYVMDYWGQGTSVTVSS VL: DIVLTQSPASLAVSLGQRATISCRASESVDTYGNSFMHWYQQIPGQPPKVLIYRASNLESGIPARFSGSGSRTDFTLTINPVEAGDVATYYCQQTNEHPPTFGGGTKLEIK"
